± gives the uncertainty stated by the source.
Experiment: protein stability index of a GFP-peptide fusion (yeast GPS) (PSI 1-4); higher = more stable; sorted into four equal gates, so the index is relative within each strain
Conditions: ubr1∆
Outline: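 Plasmids isolated from each sorting gate were PCR-amplified and Illumina-sequenced, and barcodes assigned the reads to strains. The gates, four of equal size, were set by GFP/Cherry fluorescence ratio on mid-log cultures in leucine-free medium. These cultures were yeast carrying a pooled library of tiled 17-residue yeast protein peptides fused downstream of GFP on a plasmid that also expresses Cherry. The protein stability index is the sum of every gate's read frequency times its gate number.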

| Sequence | protein stability index |
| --- | --- |
| ATVVSTNHSAAASTPTT [PGD1] | 3 ± 0.037 |
| AVDNCAICRNHIMEPCI [HRT1] | 2.2 ± 0.07 |
| AVFYTPKELGGLGMISA [PRP8] | 2.29 ± 0.24 |
| AVIESVVNQPTGKIVDV [FAS1] | 2.39 ± 0.08 |
| AVLSYYKVDAEGKVTKL [RPS31] | 3.27 ± 0.065 |
| AVNSIMALKFVSIKFTN [ECM29] | 3.13 ± 0.22 |
| AVPAATPANTNNSTSNA [SWI1] | 2.96 ± 0.04 |
| AVSEKAGHQTSAESWGT [RPL4A] | 1.86 ± 0.088 |
| AWGALITTFVKRSTVPL [YML103C/NUP188] | 2.33 ± 0.12 |
| AYELRTKSKEQLASQLV [RPL35A] | 3.15 ± 0.13 |
| AYSSRFQTPFRRRREGK [RPL5] | 3.04 ± 0.064 |
| CAACHSLDRVAWRTLVG [CYT1] | 1.26 ± 0.042 |
| CAFLLTKIKDAEEDSLL [YJL039C/NUP192] | 3.35 ± 0.1 |
| CAMSGLTADARSMIEHA [PUP2] | 2.64 ± 0.12 |
| CEINYYEILLKILITYG [SRB8] | 1.2 ± 0.076 |
| CFCEDHCDKCSVVLTLQ [RPB3] | 2.51 ± 0.17 |
| CFPQYVNSKQGAINVAN [NNF1] | 3.02 ± 0.16 |
| CIFNFLQQQTPVTIWLF [SME1] | 1.15 ± 0.052 |
| CIKKIMENNEPAMAMED [SRB8] | 3.08 ± 0.069 |
| CILYDADESKMAKLNEC [RET1] | 1.76 ± 0.055 |
| CISLSGVPNYLVQLEPH [SSN2] | 2.2 ± 0.065 |
| CLDQMTEQFCATLNYID [SRB7] | 2.65 ± 0.039 |
| CLENARSQISEKDAKIN [SIR4] | 2.98 ± 0.064 |
| CLSDYTKKISNFNSSLH [YJL039C/NUP192] | 1.25 ± 0.036 |
| CPEEFAESMCQELELPG [SNF5] | 3.03 ± 0.075 |

| Sequence | protein stability index |
| --- | --- |
| CRKCYARLPPRATNCRK [RPL40A] | 2.92 ± 0.13 |
| CRNDAVNWLAYTYLYVR [BRR2] | 3.21 ± 0.043 |
| CRVCSSHTGLIRKYGLN [RPS29A] | 1.59 ± 0.069 |
| CSFAVTKSSLNDLDYDL [YML103C/NUP188] | 3.1 ± 0.055 |
| CSHCGCVYVPNFNASLQ [SNM1] | 1.51 ± 0.1 |
| CSRCGSVTRAGNIISSD [SIN4] | 3.03 ± 0.22 |
| CTKLAVYYSKRGFKVGL [SRP54] | 2.54 ± 0.06 |
| CTNLTNRTLYELADLPK [GRR1] | 3.1 ± 0.046 |
| CVDDNSKISFIDEDKLY [SSN2] | 2.82 ± 0.29 |
| CVKNHGQSSSIQSSLMT [YCS4] | 3.05 ± 0.1 |
| CVNLSLFDARFERKNPH [SRB8] | 3.17 ± 0.053 |
| CVVLGCERRSTLKLQDT [PRE6] | 1.28 ± 0.062 |
| CWAVRADVHFLDCDGGF [RRP45] | 2.72 ± 0.064 |
| CWLSSVDVNTQKSFEQL [RPN11] | 1.35 ± 0.065 |
| CYLRWQHLRNEHGMNAP [SNF2] | 2.9 ± 0.066 |
| DAENEWNVEKFKKDFEV [RPC40] | 1.82 ± 0.11 |
| DANLNDLPETGFFENIE [IRR1] | 3.27 ± 0.12 |
| DCIIRLPVKWETTTQFK [FAS1] | 2.43 ± 0.11 |
| DDDERVEYNLFTNRSTM [BRN1] | 3.1 ± 0.068 |
| DDDQIESLKKSPIFEVL [ARP9] | 3.2 ± 0.04 |
| DDEKNDKQARKQRTKKE [SNF2] | 3.18 ± 0.1 |
| DDESEQISLNRLIDSMK [RRI1] | 3.15 ± 0.14 |
| DDFMHSETREKELESID [RPB4] | 3.2 ± 0.19 |
| DDHNGEVWSVSWNLTGT [YGL100W/SEH1] | 2.73 ± 0.085 |
| DDINKAKAVWENIIIVG [ARP9] | 2.03 ± 0.073 |

| Sequence | protein stability index |
| --- | --- |
| DDISRQVARTNLDGTKA [ROX3] | 3.11 ± 0.071 |
| DDLALPYQHPPNIFPNL [ITC1] | 3.21 ± 0.046 |
| DDSDNVMSSDDENAPVA [PRE10] | 3.11 ± 0.14 |
| DDSSSDNDSLTDLESLS [SIR4] | 2.95 ± 0.042 |
| DDVRDFVIRREVTKGEK [RPS6A] | 3.62 ± 0.18 |
| DDYKDLTCSLYELYINK [IRR1] | 2.94 ± 0.079 |
| DEADKMIDLGFEDQVTN [PRP28] | 3.1 ± 0.061 |
| DEAEGRFEVINNETEQL [SMC1] | 2.82 ± 0.1 |
| DEDEDNDLDEDDIYDIS [RPN4] | 3.33 ± 0.15 |
| DEDKNFPRSRSRSRSSI [ESC2] | 3.27 ± 0.07 |
| DEEAAGASTVMKTKTIN [PRP8] | 3.19 ± 0.061 |
| DEEETAEGQTNSISDFL [RPN1] | 3.04 ± 0.069 |
| DEKGNEIKVGKQRFQGC [ARP9] | 3.41 ± 0.1 |
| DENGDKNDNGGKMNNEV [SWI3] | 3.33 ± 0.097 |
| DENKASATSKPAFSFGA [YJL041W/NSP1] | 2.97 ± 0.055 |
| DENPDLLGYTGIPTDKG [PRE8] | 2.28 ± 0.044 |
| DENTSGKISKPRFLNKQ [PRP28] | 3.16 ± 0.15 |
| DERSQGEKNFTSAHLKL [SMC4] | 3.36 ± 0.11 |
| DEVNDRSDISDSEGGLF [PCI8] | 3.06 ± 0.12 |
| DFELEISWCSLSETNGL [PRE10] | 2.84 ± 0.069 |
| DFKAKYCDSMGRPQRKM [RPB5] | 3.32 ± 0.1 |
| DFNQAFEGTDDNEEASV [BRN1] | 3.53 ± 0.12 |
| DFQPTELFDILSTSEDV [IRR1] | 3.08 ± 0.081 |
| DGGKTLRACAANVDQIS [YMR129W/POM152] | 2.37 ± 0.11 |
| DGLGNVVDFTSLPEELK [YMR129W/POM152] | 3.42 ± 0.095 |

| Sequence | protein stability index |
| --- | --- |
| DGLIAPGVRVSGEDVII [RPB2] | 2.67 ± 0.095 |
| DGNNANYIYAGYENGML [RPN14] | 2.96 ± 0.069 |
| DGSKMLKRADYTAVDTA [RPN14] | 3.26 ± 0.079 |
| DGTEYVLSSVREPDFWV [MED6] | 2.67 ± 0.12 |
| DGTSTEKTFLHLPCTIE [RPN8] | 1.41 ± 0.044 |
| DGWVKLTYKSELSKSRA [YMR153W/NUP53] | 1.84 ± 0.032 |
| DHAIVTSPTMPDYYVSI [RPT2] | 2.86 ± 0.12 |
| DHFLSMCQNPMQKPVPF [FAS1] | 2.42 ± 0.081 |
| DHGDGILLIDSEIARTY [RPN9] | 3.17 ± 0.24 |
| DHNGVPFPQYPAGMNET [ITC1] | 2.42 ± 0.064 |
| DIAFVLNNLPYKNEDVT [YCS4] | 3 ± 0.065 |
| DICQIDTNAPVAATITS [SRB8] | 2.26 ± 0.049 |
| DIFGANAASGSNSNVTN [YOR098C/NUP1] | 2.63 ± 0.079 |
| DIILGQNIKAPSVKRQK [PRP8] | 2.51 ± 0.072 |
| DIISGKIHSILPVMESL [YJR042W/NUP85] | 2.4 ± 0.062 |
| DIPELSFFHQSNMQKSL [RPN3] | 2.87 ± 0.045 |
| DIRDSSCQGNVIYRNSL [YMR129W/POM152] | 3.37 ± 0.084 |
| DIYSHEYKVITSLQGTY [YMR129W/POM152] | 2.49 ± 0.048 |
| DKGLLPYAIMETANEIL [RPO31] | 2.25 ± 0.13 |
| DKKEMTIYNNIREGQNQ [SIR3] | 3.27 ± 0.034 |
| DKKSCSVDDVLSALDHI [DPB4] | 3.22 ± 0.044 |
| DKQAEGTPLFTFGKKAD [YOR098C/NUP1] | 1.75 ± 0.066 |

Source: the supplement of paper PMC9732359
